Laboratory results as given in US20080219971A1 (VACCINEX, published 2008).

Key:
Human CD100 [1] = target: T1, Human CD100 (human, UniProt Q92854 22-734, limits assumed); experiment: ELISA method of Friguet et al.; column head 'Affinity (nM) IC50 ELISA'; antigen not named
T1 construct: also called SEMA4D; Hu CD100
T1 sequence (looked up): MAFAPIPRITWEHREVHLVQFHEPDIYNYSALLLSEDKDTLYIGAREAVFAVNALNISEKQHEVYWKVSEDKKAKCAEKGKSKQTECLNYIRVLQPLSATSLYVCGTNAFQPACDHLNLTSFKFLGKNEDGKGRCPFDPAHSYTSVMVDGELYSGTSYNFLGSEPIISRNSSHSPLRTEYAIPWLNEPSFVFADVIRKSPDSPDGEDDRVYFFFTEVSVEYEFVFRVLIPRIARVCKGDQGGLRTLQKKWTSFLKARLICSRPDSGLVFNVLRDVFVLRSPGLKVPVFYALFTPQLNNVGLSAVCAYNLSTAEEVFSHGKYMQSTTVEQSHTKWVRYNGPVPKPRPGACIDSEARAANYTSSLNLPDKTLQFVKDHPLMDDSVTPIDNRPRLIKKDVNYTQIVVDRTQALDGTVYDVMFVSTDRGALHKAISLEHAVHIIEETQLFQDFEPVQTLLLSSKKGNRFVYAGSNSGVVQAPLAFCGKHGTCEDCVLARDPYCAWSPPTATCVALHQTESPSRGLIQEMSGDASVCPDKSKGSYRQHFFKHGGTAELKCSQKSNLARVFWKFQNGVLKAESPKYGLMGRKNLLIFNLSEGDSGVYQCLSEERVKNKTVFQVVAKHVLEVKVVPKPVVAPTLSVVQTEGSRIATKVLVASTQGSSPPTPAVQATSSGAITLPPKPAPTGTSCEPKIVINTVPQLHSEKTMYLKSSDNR
Protocol: Antibody affinity was measured according to the ELISA method described in Friguet et al. (1985) J Immunol Methods 77(2):305-19.

human CD100-Fc [2] = target: T2, human CD100-Fc (human, UniProt Q92854 22-734, limits assumed); experiment: competition ELISA on CD100-Fc: BD16 titrated against 5 ng/ml MAb 301, bound MAb 301 detected with anti-human Kappa HRP
T2 construct: also called CD100-Fc antigen
T2 sequence (looked up): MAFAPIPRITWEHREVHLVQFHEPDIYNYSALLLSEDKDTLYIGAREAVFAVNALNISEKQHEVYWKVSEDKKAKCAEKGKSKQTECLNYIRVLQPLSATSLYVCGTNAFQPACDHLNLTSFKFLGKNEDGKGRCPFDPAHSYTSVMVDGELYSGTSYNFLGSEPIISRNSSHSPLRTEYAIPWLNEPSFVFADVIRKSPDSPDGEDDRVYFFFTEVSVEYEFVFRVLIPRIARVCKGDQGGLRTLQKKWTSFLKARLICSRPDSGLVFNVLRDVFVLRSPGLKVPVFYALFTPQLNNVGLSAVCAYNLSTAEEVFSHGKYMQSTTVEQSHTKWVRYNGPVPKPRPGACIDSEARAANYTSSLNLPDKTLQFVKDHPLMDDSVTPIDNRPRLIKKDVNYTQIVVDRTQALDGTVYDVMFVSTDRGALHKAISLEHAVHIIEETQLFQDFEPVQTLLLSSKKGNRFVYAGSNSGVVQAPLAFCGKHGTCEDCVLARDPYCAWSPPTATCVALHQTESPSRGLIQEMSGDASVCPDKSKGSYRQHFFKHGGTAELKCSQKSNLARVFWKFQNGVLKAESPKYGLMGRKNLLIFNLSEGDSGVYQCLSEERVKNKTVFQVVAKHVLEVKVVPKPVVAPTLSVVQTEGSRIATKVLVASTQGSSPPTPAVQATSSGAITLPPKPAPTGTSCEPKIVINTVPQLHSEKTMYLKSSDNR
Protocol: (§1) Competition ELISA assays were then performed. The ELISA plate was coated with CD100-Fc antigen, and BD16 or BB18 were allowed to bind individually to CD100. […] The cells were washed and antibody activity detected. Bound chimeric or human MAb was detected using anti-human Kappa HRP.

human CD100-Fc [3] = target: T2, human CD100-Fc; experiment: competition ELISA on CD100-Fc: BD16 titrated against 5 ng/ml MAb 657, bound MAb 657 detected with anti-human Kappa HRP
Protocol: as §1

Human CD100 [4] = target: T1, Human CD100; experiment: affinity testing, reference value of MAb 1808 on the same day; unit not printed (nM as in Table 3); MAb 1808 reference on the day MAb 2163 was measured
Human CD100 [5] = target: T1, Human CD100; experiment: affinity testing, reference value of MAb 1808 on the same day; unit not printed (nM as in Table 3); MAb 1808 reference on the day MAb 2220 was measured
Human CD100 [6] = target: T1, Human CD100; experiment: affinity testing, reference value of MAb 1808 on the same day; unit not printed (nM as in Table 3); MAb 1808 reference on the day MAb 2208 was measured
Human CD100 [7] = target: T1, Human CD100; experiment: affinity testing, reference value of MAb 1808 on the same day; unit not printed (nM as in Table 3); MAb 1808 reference on the day MAb 2202 was measured
Human CD100 [8] = target: T1, Human CD100; experiment: affinity testing, reference value of MAb 1808 on the same day; unit not printed (nM as in Table 3); MAb 1808 reference on the day MAb 2216 was measured
human serum albumin = target: T3, human serum albumin (human, UniProt P02768 25-609); experiment: ELISA
T3 construct: Negative control antigen

BSA = target: T4, BSA (UniProt P02769 25-607); experiment: ELISA
T4 construct: Negative control antigen

streptavidin = target: T5, streptavidin (UniProt P22629 37-163, limits assumed); experiment: ELISA
T5 construct: Negative control antigen

huErb2-Fc = target: T6, huErb2-Fc (human, UniProt P04626 23-652); experiment: ELISA
T6 construct: Negative control antigen; also called huErb2-Fc antigen

Human CD100 [9] = target: T1, Human CD100; experiment: affinity testing, reference value of MAb 1808 on the same day; unit not printed (nM as in Table 3); MAb 1808 reference on the day MAb 2117 was measured
Human CD100 [10] = target: T1, Human CD100; experiment: affinity testing, reference value of MAb 1808 on the same day; unit not printed (nM as in Table 3); MAb 1808 reference on the day MAb 2191 was measured
Human CD100 [11] = target: T1, Human CD100; experiment: affinity testing, reference value of MAb 1808 on the same day; unit not printed (nM as in Table 3); MAb 1808 reference on the day MAb 2144 was measured
Human CD100 [12] = target: T1, Human CD100; experiment: affinity testing, reference value of MAb 1808 on the same day; unit not printed (nM as in Table 3); MAb 1808 reference on the day MAb 2125 was measured
Human CD100 [13] = target: T1, Human CD100; experiment: affinity testing, reference value of MAb 1808 on the same day; unit not printed (nM as in Table 3); MAb 1808 reference on the day MAb 2139 was measured
Human CD100 [14] = target: T1, Human CD100; experiment: affinity testing, method and unit not printed in Example 10 (nM as in Table 3); mutant value, before the parentheses

T4 sequence (P02769 25-607 limits assumed): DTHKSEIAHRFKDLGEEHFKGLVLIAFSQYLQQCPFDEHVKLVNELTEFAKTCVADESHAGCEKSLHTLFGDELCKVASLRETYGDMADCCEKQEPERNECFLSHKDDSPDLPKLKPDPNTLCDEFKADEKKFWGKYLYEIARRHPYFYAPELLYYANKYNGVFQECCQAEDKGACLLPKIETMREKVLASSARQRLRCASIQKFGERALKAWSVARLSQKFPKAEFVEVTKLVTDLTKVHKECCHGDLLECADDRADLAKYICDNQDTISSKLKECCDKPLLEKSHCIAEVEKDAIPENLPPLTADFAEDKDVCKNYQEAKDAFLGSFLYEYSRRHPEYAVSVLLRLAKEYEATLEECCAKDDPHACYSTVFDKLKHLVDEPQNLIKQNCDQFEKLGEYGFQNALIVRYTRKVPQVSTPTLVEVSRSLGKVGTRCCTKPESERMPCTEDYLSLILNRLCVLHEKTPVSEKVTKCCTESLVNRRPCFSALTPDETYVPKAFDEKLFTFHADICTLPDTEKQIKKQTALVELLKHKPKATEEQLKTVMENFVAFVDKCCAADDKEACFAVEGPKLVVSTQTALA
T3 sequence (P02768 25-609 limits assumed): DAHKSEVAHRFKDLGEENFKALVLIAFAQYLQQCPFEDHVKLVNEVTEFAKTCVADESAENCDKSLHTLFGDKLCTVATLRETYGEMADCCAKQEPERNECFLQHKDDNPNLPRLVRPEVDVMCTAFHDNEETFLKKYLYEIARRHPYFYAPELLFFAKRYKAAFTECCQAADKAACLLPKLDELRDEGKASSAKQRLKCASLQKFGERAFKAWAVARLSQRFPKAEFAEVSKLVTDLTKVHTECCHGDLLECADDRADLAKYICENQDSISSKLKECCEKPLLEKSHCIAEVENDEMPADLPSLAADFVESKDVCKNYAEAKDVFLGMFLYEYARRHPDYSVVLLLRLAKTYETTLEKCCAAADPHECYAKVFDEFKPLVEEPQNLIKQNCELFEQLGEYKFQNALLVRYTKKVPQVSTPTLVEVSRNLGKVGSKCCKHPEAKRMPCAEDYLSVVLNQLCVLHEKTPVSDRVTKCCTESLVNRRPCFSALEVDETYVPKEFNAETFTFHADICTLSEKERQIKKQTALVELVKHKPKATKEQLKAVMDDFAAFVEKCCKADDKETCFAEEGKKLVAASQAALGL
T5 sequence (P22629 37-163 limits assumed): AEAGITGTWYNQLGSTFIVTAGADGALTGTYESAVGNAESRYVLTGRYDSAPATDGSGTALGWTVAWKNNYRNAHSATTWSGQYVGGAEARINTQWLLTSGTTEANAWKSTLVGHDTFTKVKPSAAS

B1: BD16 (antibody, V domains shown)
VH: EVQLQQSGPELVKPGASVKMSCKASGYTFTDYYMDWVKQSHGESFEWIGRVNPYHGGATYNQKFKGKATLTVDKSSRTAYMELNSLTYEDSAVYYCAREENSYDGYYGMDYWGQGTTVTVSS
VL: DIVLTQSPSSLSVSAGEKVTMDCKSSQSLFNSGNQKNYLAWYHQKPGQPPKLLIYGASTRESGVPDRFTGSGSGTDFTLTISSVQAEDLAVYYCQNDHTYPYTFGGGTKLEIK
notes: Murine hybridoma anti-human CD100 antibody; also called mouse BD16; BD16 mouse MAb
Kd (Human CD100 [1]): 0.13 nM
IC50 (read off the curve) (human CD100-Fc [2]): ~0.02 µg/mL
IC50 (read off the curve) (human CD100-Fc [3]): ~0.03 µg/mL

B2: MAb 1808 (antibody, human IgG4, V domains shown)
VH: QVQLVQSGAEVKKPGSSVKVSCKASGYTFTDYYMDWVRQAPGQGLEWMGRVNPYHGGATYNQKFKGRVTITADKSTSTAYMELSSLRSEDTAVYYCAREENSYDGYYGMDYWGQGTLVTVSS
VL: DIVMTQSPLSLPVSPGEPATINCKSSQSLFNSGNQKNYLAWYLQKPGQPPKLLIYGASTRESGVPDRFSGSGSGTDFTLTISSLQAEDVAVYYCQNDHTYPYTFGQGTKLEIK
notes: Humanized BD16, fully human frameworks, human IgG4; also called H1651/L284
Kd (Human CD100 [4]): 0.12 nM
Kd (Human CD100 [5]): 0.12 nM
Kd (Human CD100 [1]): 0.13 nM
Kd (Human CD100 [6]): 0.12 nM
Kd (Human CD100 [7]): 0.12 nM
Kd (Human CD100 [8]): 0.12 nM
binding result (human serum albumin): no binding
binding result (BSA): no binding
binding result (streptavidin): no binding
binding result (huErb2-Fc): no binding
Kd (Human CD100 [9]): 0.57 nM
Kd (Human CD100 [10]): 0.13 nM
Kd (Human CD100 [11]): 0.5 nM
Kd (Human CD100 [12]): 0.57 nM
Kd (Human CD100 [13]): 0.71 nM

B3: MAb 2191 (antibody, V domains shown)
VH: QVQLVQSGAEVKKPGSSVKVSCTASGYTFTDYYMDWVRQAPGQGLEWMGRVNPYHGGATYNQKFKGRVTITADKSTSTAYMELSSLRSEDTAVYYCAREENSYTGYYGMDYWGQGTLVTVSS
VL: DIVMTQSPLSLPVSPGEPATINCKSSQSLFNSGNQKNYLAWYLQKPGQPPKLLIYGASTRESGVPDRFSGSGSGTDFTLTISSLQAEDVAVYYCQNDHTYPYTFGQGTKLEIK
notes: Double mutant of H1651 with L284; also called H1651 K23T D104T with L284
Kd (Human CD100 [14]): 0.09 nM
